Laboratory results published in publication PMC10900128 (Chembiochem : a European journal of chemical biology, 2018).
*: point of attachment. FITC = O=C1OC2(c3ccc(O)cc3Oc3cc(O)ccc32)c2ccc(NC(=S)*)cc21; βAla = NCCC(=O)O

Biological target: T1, FITC-MLL peptide (SMILES …)
T1 peptide: {FITC-βAla}-DAGNILPSDIMDFVLKNTP-NH2
Test: fluorescence polarisation

B1: GACKIX N627C (GACKIX domain of mouse CBP, residues 586–672, N627C mutant), unlabeled (domain or fragment)
chain: not shown
Question: Does B1 bind?
Answer: binds
